According to paper PMC5346638, “Azadiradione ameliorates polyglutamine expansion disease in Drosophila by potentiating DNA binding activity of heat shock factor 1” (Oncotarget, 2016):

Key:
[1] = target: T1, heat shock factor 1 (HSF1) (Homo sapiens, UniProt Q00613); experiment: intrinsic tryptophan fluorescence titration, Scatchard plot; supported by EMSA, CD, light scattering; format: binding
T1 construct: purified full length HSF1, N-terminal his6 tag, expressed in E. coli
T1 sequence (Q00613 1-529): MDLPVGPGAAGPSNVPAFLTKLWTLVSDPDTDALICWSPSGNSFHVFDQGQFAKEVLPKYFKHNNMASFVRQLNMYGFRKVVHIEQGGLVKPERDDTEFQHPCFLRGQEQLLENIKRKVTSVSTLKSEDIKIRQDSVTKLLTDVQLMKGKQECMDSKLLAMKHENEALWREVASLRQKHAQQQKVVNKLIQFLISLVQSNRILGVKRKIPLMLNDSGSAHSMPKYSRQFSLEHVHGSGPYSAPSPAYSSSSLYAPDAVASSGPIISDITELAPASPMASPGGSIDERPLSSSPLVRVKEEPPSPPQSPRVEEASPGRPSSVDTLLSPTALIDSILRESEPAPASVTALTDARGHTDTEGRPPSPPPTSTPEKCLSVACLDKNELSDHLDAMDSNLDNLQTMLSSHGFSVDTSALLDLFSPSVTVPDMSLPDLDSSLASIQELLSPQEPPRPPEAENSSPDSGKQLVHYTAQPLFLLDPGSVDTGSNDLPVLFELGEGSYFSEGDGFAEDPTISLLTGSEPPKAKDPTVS

[2] = tested on: his6-HSF1 (codon-optimized) (Homo sapiens); experiment: EMSA; conditions: Fluorescence: 2 uM HSF1, 0-10 uM HSE, room temperature, buffer not given; EMSA: 0.5 uM protein or 50 ug WCE, 1 ng 32P-HSE, buffer per cited reference, 4% PAGE
[3] = tested on: his6-HSF1 (codon-optimized) (Homo sapiens); experiment: tryptophan fluorescence quenching; conditions: room temperature, Fluorescence: 2 uM HSF1, 0-10 uM HSE, buffer not given, EMSA: 0.5 uM protein or 50 ug WCE, 1 ng 32P-HSE, buffer per cited reference, 4% PAGE

Question: For `CC(=O)O[C@@H]1C[C@H]2C(C)(C)C(=O)C=C[C@]2(C)[C@H]2CC[C@]3(C)C(=CC(=O)[C@H]3c3ccoc3)[C@@]21C` [AZD, azadiradione], which Kd [1] is on record?
Answer: 1350 nM

Question: Which results are given for HSE (proximal HSE of hsp70A1A promoter)?
Answer: binding signal (fold affinity increase with AZD) [2]: > 2; Kd ([3]; 5 uM azadiradione): 350 nM; Kd ([3]; no AZD): 800 nM
